# Data taken from US20120065106.
# Changes are numbered by the printed parent chain. Names and notes keep the numbering of the source.
# B1: ULP1 mutant 1.38 (residues 451-455: S T I I A) (protein)
# chain: LVPELNEKDDDQVQKALASRENTQLMNRDNIEITVRDFKTLAPRRWLNSTIIAFFMKYIEKSTPNTVAFNSFFYTNLSERGYQGVRRWMKRKKTQIDKLDKIFTPINLNQSHWALGIIDLKKKTIGYVDSLSNGPNAMSFAILTDLQKYVMEESKHTIGEDFDLIHLDCPQQPNGYDCGIYVCMNTLYGSADAPLDFDYKDAIRMRRFIAHLILTDALK
# B2: ULP1 mutant 1.48 (residues 451-455: S T I I M) (protein)
# chain: B1 chain with A53M
# B3: ULP1 mutant 2.3 (residues 451-455: A M I I A) (protein)
# chain: B1 chain with S49A, T50M
# B4: ULP1 (wild-type SUMO protease 1) (protein)
# chain: B1 chain with S49D, A53E
# B5: SUMO* protease 1 (ULP1 mutant 2.2; D451S, T452G, E455S) (protein)
# chain: MGLVPELNEKDDDQVQKALASRENTQLMNRDNIEITVRDFKTLAPRRWLNSGIISFFMKYIEKSTPNTVAFNSFFYTNLSERGYQGVRRWMKRKKTQIDKLDKIFTPINLNQSHWALGIIDLKKKTIGYVDSLSNGPNAMSFAILTDLQKYVMEESKHTIGEDFDLIHLDCPQQPNGYDCGIYVCMNTLYGSADAPLDFDYKDAIRMRRFIAHLILTDALKLEHHHHHH
# Legend:
# [1] = target: T1, SUMO*-GFP (engineered SUMO 2F4, Smt3 R64T R71E, fused to GFP)
# T1 chain: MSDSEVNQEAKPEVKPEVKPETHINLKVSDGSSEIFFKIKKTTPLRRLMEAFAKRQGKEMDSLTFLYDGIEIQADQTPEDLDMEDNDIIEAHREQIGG
# [2] = target: SMT3-GFP (wild-type SUMO-GFP fusion) [SUMO: Q12306]
# [3] = target: SUMO mutant 1A3 (R64Q), GFP fusion [SUMO: Q12306]
# [4] = target: SUMO mutant 1C1 (R64L), GFP fusion [SUMO: Q12306]
# [5] = target: SUMO mutant 2E11 (R64F; R71E), GFP fusion [SUMO: Q12306]
# [6] = target: SUMO mutant 2E4 (R64T; R71E), GFP fusion [SUMO: Q12306]
Protein,% Cleavage of SUMO* tag [1] [%],"in vitro cleavage, protease titration (SDS-PAGE) [2]","in vitro cleavage, protease titration (SDS-PAGE) [1]",also measured
B1,75,,,
B2,75,,,
B3,10,,,
B4,0,ULP1 cleaves the SMT3 tag,ULP1 does not cleave SUMO* tag,"% Cleavage with ULP1 [2]: 100%; in vitro cleavage (SDS-PAGE and anti-Smt3 Western blot) [2]: wild-type SUMO (Smt3) is cleaved by ULP1 and SENP2 (SUMO protease 1 and 2) in vitro; % Cleavage with ULP1 [3]: 10%; % Cleavage with ULP1 [4]: 10%; % Cleavage with ULP1 [5]: 0%; % Cleavage with ULP1 [6]: 0%; % Cleavage with ULP1 [1]: 0%; in vitro cleavage reaction [1]: Neither protease cleaved SUMO*; in vitro cleavage, protease titration [1]: incubated with increasing amounts of Ulp1 up to 1000 fold excess of the enzyme concentration required to fully cleave SUMO and still no cleavage was detected"
B5,100,"SUMO* protease 1 cleaves wild type SUMO, but less efficiently than SUMO*",SUMO* protease 1 cleaves the SUMO* tag,
